Broadly, the Kd is the free concentration of one partner at which half of the binding sites on the other are occupied at equilibrium, for simple one-to-one binding. Usually koff stands for the first-order rate constant of dissociation. Higher therefore signals a short-lived complex.

Test [1] has as its target hBMP-10 (human) (UniProt O95393). Kind of test: cell-based or functional assay.
Test [2] has as its target hBMP-9 (human) (UniProt Q9UK05). Kind of test: cell-based or functional assay.
Test [3] concerns the target hBMP-10 (human) (UniProt O95393). Kind of test: SPR kinetics, captured CHO-cell-derived protein. (In SPR one partner is held on a chip, and binding of the other changes the refractive index at the surface.)
Test [4] deals with hBMP-9 (human) (UniProt Q9UK05). Kind of test: SPR kinetics, captured CHO-cell-derived protein.

Sequence of UniProt O95393 (O95393 317-424 limits assumed): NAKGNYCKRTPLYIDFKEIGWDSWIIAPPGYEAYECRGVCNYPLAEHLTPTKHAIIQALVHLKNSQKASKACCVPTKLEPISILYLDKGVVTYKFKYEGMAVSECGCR
Sequence of UniProt Q9UK05 (Q9UK05 320-429 limits assumed): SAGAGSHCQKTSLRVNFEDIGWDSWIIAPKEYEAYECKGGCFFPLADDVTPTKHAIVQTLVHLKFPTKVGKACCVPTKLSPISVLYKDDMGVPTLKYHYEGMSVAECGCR

For “hENG(26-586)-hFc, CHO-cell-derived, with N-terminally truncated Fc domain (Fc fusion)”, the IC50 (nM), BRE-luciferase reporter-gene assay in A204 cells turned out to be 7.9 nM with hBMP-10 (human) [1] and 0.26 nM with hBMP-9 (human) [2]. In addition, the Kd is 490 pM with hBMP-10 (human) [3] and 33 pM in the test with hBMP-9 (human) [4]. The off-rate (koff) was determined as 0.011 s⁻¹ in the test with hBMP-10 (human) [3] and 0.0025 s⁻¹ in the test with hBMP-9 (human) [4].

The values above are taken from patent US20150307588A1.
